Earlier results, collected in patent US20200222508A1 (Arecor Limited, priority 2016, published 2020).

Settings: in vivo

Row | Substance | circulating half-life
1 | Albiglutide: GLP-1 dimer fused to human albumin, SEQ ID NO: 5 | 96 to 170 h
2 | Dulaglutide: GLP-1 analogue consisting of GLP-1(7-37) covalently linked to an Fc fragment of human IgG4, SEQ ID NO: 6 | approximately 5 days
3 | Lixisenatide: analogue of exendin-4, proline omitted at position 38, six lysine residues added at C-terminal, SEQ ID NO: 8 | 2 to 4 h
